Experimental data reported in US6326466A, “Double-stranded RNA dependent protein kinase derived peptides to promote proliferation of cells and tissues in a controlled manner” (priority 1999, dated 2001).
Ends that are not written are not given here.

How the values were obtained:
[1] = target: T1, PKR (dsRNA-dependent protein kinase) (Oryctolagus cuniculus) (UniProt Q287T5); assay: competition; conditions: unlabeled poly(I)-poly(C) 80 ug/ml as competitor to TAR RNA
T1 sequence: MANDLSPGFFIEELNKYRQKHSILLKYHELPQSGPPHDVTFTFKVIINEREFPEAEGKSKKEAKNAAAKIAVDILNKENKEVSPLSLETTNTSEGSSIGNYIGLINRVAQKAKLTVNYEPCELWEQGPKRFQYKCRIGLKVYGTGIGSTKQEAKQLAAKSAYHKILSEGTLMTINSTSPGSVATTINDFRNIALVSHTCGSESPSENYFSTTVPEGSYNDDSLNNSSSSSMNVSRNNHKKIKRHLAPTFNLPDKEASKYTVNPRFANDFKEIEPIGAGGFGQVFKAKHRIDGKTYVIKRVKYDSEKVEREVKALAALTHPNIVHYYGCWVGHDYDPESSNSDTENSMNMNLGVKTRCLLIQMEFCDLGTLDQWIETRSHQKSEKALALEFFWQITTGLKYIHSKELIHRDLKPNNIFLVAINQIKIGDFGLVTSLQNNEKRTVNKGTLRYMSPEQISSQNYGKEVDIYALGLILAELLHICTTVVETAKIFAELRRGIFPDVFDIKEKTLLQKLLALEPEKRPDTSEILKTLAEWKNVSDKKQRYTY

3T3442A cells = assay type: cell-based; conditions: one hour at 37EC
Method: A PKR peptide antagonist (50 μg) having the sequence […] (SEQ ID NO: 25) comprising a cell permeability subsequence (residues 1-16 of SEQ ID NO:25), a heme agglutinin-epitope tag subsequence (residues 17-25 of SEQ ID NO:25), and a PKR peptide antagonist subsequence (residues 26-46 of SEQ ID NO:25) was radiolabeled with [^125 I]-iodine by the chloramine-T method (Hunter, W. M. and Greenwood, F. C. Nature 194:495-496, 1962) and purified by size exclusion chromatography using BioGel P2 (BioRad, Inc.) 35 million CPM of radiolabeled PKR peptide was added to pre-confluent cultures of 3T3442A cells grown in medium containing 10% FBS. After 1 hour at 37° C., the media was aspirated and the cells were washed four times in phosphate buffered saline (PBS). Cells were removed from the culture dishes by scraping and collected by centrifugation (4EC, 750×g, 5 min). The wash buffer was removed and the cell pellet was dissolved in SDS-polyacrylamide gel buffer (Laemmli, Nature (London), 227:680-685, 1970). The sample was analyzed by SDS-tricine polyacrylamide gel electrophoresis using 4-20% gradient tricine-SDS gels and the radiolabeled peptide antagonist was visualized by autoradiography of dried gels. […]
The subcellular localization of the PKR peptide antagonist (SEQ ID NO:25) that had been internalized by 3T3442A cells was determined by confocal microscopy. […]

poly(I)-poly(C)
binding signal (% inhibition of TAR complex) [1]: 60

AAVALLPAVLLALLAPYPYDVPDYAKKEAKNAAAKLAVEILNKEKK [SEQ ID NO:25]
subcellular localization of internalized peptide (confocal microscopy, anti-HA) (3T3442A cells): obvious, intense localization of the epitope-tagged peptide to the cell cytoplasm
